These results are taken from patent publication US8298798B2, “Production of C5-C8 alcohols using evolved enzymes and metabolically engineered microorganisms” (The Regents of the University of California, priority 2008, dated 2012).

For data set [1] the following is noted: cited from earlier work.
The target in data set [2] is F381L/V461A KIVD (Lactococcus lactis, UniProt A0A0B8QZ66, form not given/V461A). Kind of data set: coupled enzymatic assay of KIVD decarboxylation activity. Format: biochemical. The following applies: for kcat: substrate of V461A/F381L KIVD, 30° C., pH 6.8. The source says:
(§1) Protein Expression and Purification. Both gene fragments encoding wild type and F381L/V461A KIVD were amplified from plasmid pZE_LeuABCDKA6 using primers hiskivd_tevfwd and hiskivd_bamrev. After digestion with BamHI, the gene fragments were inserted into expression plasmid pQE9 (Qiagen) to yield pQE_hiskivd_wt and pQE_hiskivd_FL. The ADH6 gene fragment was amplified from yeast genomic DNA using primers hisadh_tevfwd and hisadh_bamrev, digested with BamHI and inserted into pQE9 to generate pQE_hisadh6. Similarly, genes encoding G462D and G462D/S139G LeuA were amplified from plasmid pZE_LeuABCDKA6 using primers hisleua_tevfwd and hisleua_bamrev. After digestion with BamHI, the PCR products were ligated into pQE9 to create pQE_hisleua_GD and pQE_hisleua_GS. The resulting expression plasmids pQE_hiskivd_wt, pQE_hiskivd_FL, pQE_hisadh6, pQE_hisleua_GD and pQE_hisleua_GS were transformed into E. coli strain BL21(DE3) harboring pREP4 (Qiagen). Cells were inoculated from an overnight pre-culture at 1/100 dilution and grown in 200 ml 2XYT rich medium containing 50 mg/L ampicillin and 25 mg/L kanamycin. At an OD600 of 0.6, recombinant proteins were expressed by induction of the cell cultures with 0.1 mM IPTG, followed by incubation at 30° C. overnight. Cell pellets were lysed by sonication in a buffer containing 250 mM NaCl, 2 mM DTT, 5 mM imidazole, and 50 mM Tris pH 9.0. By applying a stepwise gradient of imidazole (up to 250 mM), enzymes were purified from crude cell lysates through Ni-NTA column chromatography. The fractions of highest purity were pooled and buffer-exchanged using Amicon Ultra centrifugal filters (Millipore). Storage buffer 1 ([…], pH 8.0, 1 mM MgSO4, and 20% glycerol) was used for LeuA and ADH6, and storage buffer 2 ([…], pH 8.0, 1 mM MgSO4, 0.2 mM ThDP, and 20% glycerol) was used for KIVD. The concentrated protein solutions were aliquoted (100 μl) into PCR tubes and flash frozen at −80° C. for long term storage.
(§2) Enzymatic Assay of KIVD. Substrate 2-ketoisovalerate (KIV) was purchased from Sigma-Aldrich, and (S)-2-keto-4-methylhexanoate (KHV) was custom synthesized by AsisChem. Inc. Protein concentration was determined by measuring UV absorbance at 280 nm. The decarboxylation activity of KIVD was measured at 30° C. using a coupled enzymatic assay method. Excess ADH6 was used to reduce aldehyde into alcohol, and concomitantly, cofactor NADPH was oxidized to NADP+. The assay mixture contained 0.2 mM NADPH, 0.1 μM ADH6 and 0.1-20 mM 2-keto acids in assay buffer (50 mM potassium phosphate buffer, pH 6.8, 1 mM MgSO4, 0.5 mM ThDP) with a total volume of 0.2 mL. The reactions were started by adding 2 μl KIVD (final concentration: for KIV, 20 nM wt KIVD, 200 nM F381L/V461A KIVD; for KHV, 50 nM both), and the consumption of NADPH was monitored at 340 nm (extinction coefficient, 6.22 mM^−1 cm^−1). Kinetic parameters (kcat and Km) were determined by fitting initial velocity data to the Michaelis-Menten equation using Origin.

Data set [3] deals with wild type KIVD (Lactococcus lactis, UniProt A0A0B8QZ66). The data set is described as above. Type of data set: biochemical. The following applies: for kcat: substrate of Wild type KIVD, 30° C., pH 6.8.
From the text: as §1, §2

Data set [4] addresses T1, G462D LeuA (Escherichia coli, UniProt P09151, G462D).
T1 construct: His tag (pQE9 vector, Ni-NTA purified) (N); TEV protease site (ENLYFQG, encoded by the forward primer) (N); made in house; host or cells: E. coli BL21(DE3) harboring pREP4
The data set is described as follows: measurement of LeuA activity (DTNB). Type of data set: biochemical, E. coli. The following applies: for kcat: substrate of G462D LeuA, 30° C., pH 8.0.
From the text: as §1
(§3) Measurement of LeuA activity. The assay mixture contained 100 mM KCl, 2 mM MgCl2, 1 mM acetyl-CoA, and 100 mM Tris pH 8.0 with a total volume of 100 μl. 100 nM G462D or G462D/S139G LeuA was reacted with 2-ketoisovalerate in a concentration range from 25 μM to 1 mM for 10 minutes at 30° C. While 4 μM G462D or 1.5 μM G462D/S139G LeuA was reacted with (S)-2-keto-3-methylvalerate in a concentration range from 50 μM to 2 mM for 30 minutes at 30° C. The reactions were stopped by adding 0.3 ml of ethanol. Then 0.2 ml of a fresh 1 mM solution of 5,5′-Dithio-Bis (2 Nitrobenzoic Acid) in 100 mM Tris buffer pH 8.0 was added, and the yellow color product was measured at 412 nm. The values obtained were corrected for unspecific hydrolysis by subtracting the absorbance of controlled samples without addition of 2-keto acids. A molar extinction coefficient of 13,600 M^−1 cm^−1 was used in the final calculations.

Data set [5] deals with T2, G462D/S139G LeuA (Escherichia coli, UniProt P09151, G462D/S139G).
T2 construct: His tag (pQE9 vector, Ni-NTA purified) (N); TEV protease site (ENLYFQG, encoded by the forward primer) (N); made in house; host or cells: E. coli BL21(DE3) harboring pREP4
T2 sequence (P09151 whole entry S139G/G462D): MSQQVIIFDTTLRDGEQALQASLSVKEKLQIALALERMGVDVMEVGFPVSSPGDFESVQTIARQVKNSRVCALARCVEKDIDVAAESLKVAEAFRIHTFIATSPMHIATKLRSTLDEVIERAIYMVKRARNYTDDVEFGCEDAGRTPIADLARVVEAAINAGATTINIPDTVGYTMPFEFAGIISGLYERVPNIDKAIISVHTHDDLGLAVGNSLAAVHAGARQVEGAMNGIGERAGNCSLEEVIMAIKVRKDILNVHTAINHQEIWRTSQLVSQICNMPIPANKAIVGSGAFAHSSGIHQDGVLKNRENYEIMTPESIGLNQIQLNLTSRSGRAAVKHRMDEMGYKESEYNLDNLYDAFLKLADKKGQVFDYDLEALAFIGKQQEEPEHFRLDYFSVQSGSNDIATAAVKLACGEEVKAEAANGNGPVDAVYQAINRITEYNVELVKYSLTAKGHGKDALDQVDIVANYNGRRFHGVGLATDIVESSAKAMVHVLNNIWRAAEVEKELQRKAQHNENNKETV
Kind of data set: measurement of LeuA activity (DTNB). Format: biochemical, E. coli.
From the text: as §1, §3

Data set [6] deals with CC(C)C(=O)C(=O)O. Kind of data set: measurement of LeuA activity (DTNB). Format: biochemical, E. coli. The following applies: 30° C., pH 8.0.
From the text: as §1, §3

The subject of data set [7] is CC[C@H](C)C(=O)C(=O)O. The data set is described as follows: measurement of LeuA activity (DTNB). Type of data set: biochemical, E. coli. The following applies: 30° C., pH 8.0.
From the text: as §1, §3

Substrate in data set [8]: CC[C@H](C)CC(=O)C(=O)O
Kind of data set: coupled enzymatic assay of KIVD decarboxylation activity. The conditions noted are these: other: substrate of Wild type KIVD, 30° C., pH 6.8. Format: biochemical, Lactococcus lactis.
From the text: as §1, §2

Substrate in data set [9]: CC(C)C(=O)C(=O)O
The description is as above. Type of data set: biochemical, Lactococcus lactis. The following applies: other: substrate of Wild type KIVD, 30° C., pH 6.8.
From the text: as §1, §2

Where [10] appears, read: other: substrate of G462D/S139G LeuA.

≈ marks a conversion by molar mass, not a printed value.

T1 sequence (P09151 whole entry G462D): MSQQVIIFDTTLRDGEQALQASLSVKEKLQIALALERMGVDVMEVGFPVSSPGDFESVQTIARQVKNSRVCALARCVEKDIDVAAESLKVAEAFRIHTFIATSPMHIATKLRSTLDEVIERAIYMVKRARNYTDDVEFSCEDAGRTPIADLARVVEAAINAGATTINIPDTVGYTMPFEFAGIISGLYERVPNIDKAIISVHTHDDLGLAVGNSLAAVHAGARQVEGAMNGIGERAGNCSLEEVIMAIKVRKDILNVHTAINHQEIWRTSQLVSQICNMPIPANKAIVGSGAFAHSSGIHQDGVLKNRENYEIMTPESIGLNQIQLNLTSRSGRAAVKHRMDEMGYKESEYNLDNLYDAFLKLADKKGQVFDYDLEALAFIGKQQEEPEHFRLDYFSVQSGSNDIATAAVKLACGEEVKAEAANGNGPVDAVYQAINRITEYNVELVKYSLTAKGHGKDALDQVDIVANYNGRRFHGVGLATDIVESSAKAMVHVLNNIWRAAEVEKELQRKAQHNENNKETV

Take `CCCCCO` [1-Pentanol]: the water solubility in data set [1] was 23 mg/mL (≈ 261 mM).
With `CCCCCCCO` [1-heptanol], in data set [1], the water solubility was 1.2 mg/mL (≈ 10.3 mM).
The kcat is the maximal rate divided by the concentration of active sites. For the molecule `CC(C)C(=O)C(=O)O` [2-Ketoisovalerate], the turnover number (kcat) in [2] came to 2.7 ± 0.6 s⁻¹; in [2] (listed as 2-ketoisovalerate) it was 2.7 s⁻¹; in data set [3], 38.3 s⁻¹; in data set [4] it was 6.0 s⁻¹.
Take `CC[C@H](C)C(=O)C(=O)O` [(S)-2-keto-3-methylvalerate]: in data set [5] (G462D/S139G versus G462D LeuA), the “increase of kcat by the S139G mutation” value is recorded as 7 fold. Also, the kcat in data set [5] (substrate of G462D/S139G LeuA, 30° C., pH 8.0) stood at 0.12 s⁻¹; in [4], 0.018 s⁻¹. For the same molecule, the “kcat, fold less than that for 2-ketoisovalerate” value in data set [4] (G462D LeuA) was found to be 333 fold.
Take `CC[C@H](C)CC(=O)C(=O)O` [(S)-2-keto-4-methylhexanoate]: the “specificity constant kcat/Km relative to that towards 2-ketoisovalerate” value in [2] (F381L/V461A KIVD) amounted to 40 fold; in [3] (wild type KIVD), 4 fold. In addition, the turnover number (kcat) in data set [2] was 3.0 ± 0.1 s⁻¹; in data set [2] (listed as 2-keto-4-methylhexanoate) it was 3.0 s⁻¹; in data set [3], 10.8 s⁻¹.
As usually defined, the Km is the concentration of substrate that gives half-maximal velocity. What is called kcat/Km is the second-order rate constant that governs catalysis at low substrate concentration. “G462D LeuA (Escherichia coli K-12; G462D)”: in data set [6] (other: substrate of G462D LeuA), the Michaelis constant (Km) came out at 182 µM, the kcat was found to be 6.0 ± 0.3 s⁻¹ and the specificity constant (kcat/Km) was 33000 M⁻¹ s⁻¹. Also, in data set [7] (other: substrate of G462D LeuA), the Michaelis constant (Km) is 55 µM, the kcat came to 0.018 ± 0.001 s⁻¹ and the kcat/Km is 330 M⁻¹ s⁻¹.
With “G462D/S139G LeuA (Escherichia coli K-12; G462D/S139G)”, in [6] (setting [10]), the Km was 104 ± 5 µM, the kcat turned out to be 2.1 ± 0.1 s⁻¹ and the kcat/Km came to 20000 M⁻¹ s⁻¹. Also, in data set [7] (setting [10]), the Michaelis-Menten constant (Km) came out at 144 ± 13 µM, the kcat worked out at 0.12 ± 0.02 s⁻¹ and the catalytic efficiency (kcat/Km) is 830 M⁻¹ s⁻¹.

B1: wild type KIVD (Lactococcus lactis subsp. lactis) (protein)
chain: MYTVGDYLLDRLHELGIEEIFGVPGDYNLQFLDQIISRKDMKWVGNANELNASYMADGYARTKKAAAFLTTFGVGELSAVNGLAGSYAENLPVVEIVGSPTSKVQNEGKFVHHTLADGDFKHFMKMHEPVTAARTLLTAENATVEIDRVLSALLKERKPVYINLPVDVAAAKAEKPSLPLKKENSTSNTSDQEILNKIQESLKNAKKPIVITGHEIISFGLEKTVSQFISKTKLPITTLNFGKSSVDEALPSFLGIYNGKLSEPNLKEFVESADFILMLGVKLTDSSTGAFTHHLNENKMISLNIDEGKIFNESIQNFDFESLISSLLDLSEIEYKGKYIDKKQEDFVPSNALLSQDRLWQAVENLTQSNETIVAEQGTSFFGASSIFLKPKSHFIGQPLWGSIGYTFPAALGSQIADKESRHLLFIGDGSLQLTVQELGLAIREKINPICFIINNDGYTVEREIHGPNQSYNDIPMWNYSKLPESFGATEERVVSKIVRTENEFVSVMKEAQADPNRMYWIELILAKEDAPKVLKKMGKLFAEQNKS
As to B1, in data set [8], the Michaelis-Menten constant (Km) came to 140 µM, the kcat worked out at 10.8 ± 0.3 s⁻¹ and the specificity constant (kcat/Km) turned out to be 77000 M⁻¹ s⁻¹. In addition, in [9], the Km came out at 2200 µM, the catalytic constant (kcat) stood at 38.3 ± 9.8 s⁻¹ and the kcat/Km stood at 17000 M⁻¹ s⁻¹.
